In a protein production outcome set (Wang et al. 2014):

Test: label from the status in PepcDB records
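Further: failed if final PepcDB status was selected cloned or expressed and not failed if soluble or beyond.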

Row | Sequence | protein production
1 | MTDTTAEPSRPSGRLWAYLWQLHAETKAYLTLDAPAIASNIDSLSESEQQLAREVFPDGGQSTADSDGGSATDAGSRGGDDSSPFDVGGSYSLRQKIGLVLGPLLFAALLFSPTPDGLPAEGQAVAAVTAWVAVWWMSEAIPIPAASLLPIVLFPLAGALPVEPTATSYGHPLVFLFMGGFFLAMAMQRWGLHRRIALRTIKLVGTEPSRLILGFMLATAILSMWVSNSATVMMMVPIALAVIYQTADLIDDSDVDIDTGVGEFSFGIALMLCIAYGASVGGVATLIGTPPNILFAGQAEALFGQSVSFAEWMLYGVPIAALGLVTVYIYVTRIAMTPQFDSLPAGTETIDRELAELGSMSQQEKLVAVVFVGMAAAWIGASLIEPVLDITPPDDADTIVAIGGALVLFTFPTTGENGDQTFLLDWSSAVEIPWGVILLFGGGLAIAAGFSETGLAVWIGEQLQLLEGVQMAAILLAVVVMTIFLTEVTSNTATTAMLMPILGAVAIGISVHPFGLMIAGATAASFAFMLPVATPPNAIVFGSGYITLPQMARVGVGLNVIGIVLITLLALVWLPIAWGIELATLPAEFADAFDS | failed
2 | MKVFFVVTHLLGSGHLSRTLVLARAHLKAGHEVTLISGGMPVPHLSHDGITLVQLPALRSDGVNFTRLLDDKGDVASETLMRDRREKLLSTFEEAAPDVLVTELFPFGRRSLSDEFLALLNMAKARKNPPRICCSIRDILAPPSKPSKAARVRDIITEFYDAIIVHSDPDVTPLAASWPVTEDIAEKLRYSGFVANPPAPMHPDAPGQGEVLVSAGGGAVGDALYAAALGAAKLNGDLHWRVLVGGADAPAKCAALKEGCPANTTIEPARPDFRQMLHRAKASVSMCGYNTALDILQSGTPAVFVPFDAGGEVEQSLRASALAKMAGIRVVNSVDLQPEALLNTVHSVVQDPRRGPQTRGLDGASRTAELLETLVEASGHAG | failed
3 | MSGYFEILAILTCAVFVVWLFRRLNLPAILAYLVAGMLVGQHGLNLVQDQVDYDHFAELGIVFLLFTLGLEFSLPRLMAMRHLVVSVGSLQVGISLLVFIIAGLFFGLSFSEAFVVGSILALSSTAIVIRQLSETGAMKRKSGQLSVAILLFQDVAVVPLLIIIPMLAMDSQSSMVWALMLAMVKGVVVVALLLLIGKWLLPKVFNIIAQVRTDELFVLTTLLVTLLAAAFTQWFGLSMALGAFLAGMMLSESEYKHQLEADIRPYRDILLGLFFITVGMKLDVSLLISSPFSLLGLMLCFMLVKIMVIKILAVKAGESSKDAWASGLMLAQMGEFGFVLIALANQSQILPLDVASMLLGAGVISMAITPFMINNARSWALFLSQEKSPESLDLSQLPENKVLENHVVICGFGRVGQTVSRFLKQDEIDFVAIDVDPLRTQKAREAGEKVLFGSSRQTEVLNAAHLSEAKLVVIAFGDDKQSLEVIQKVRSMNEKVPILVRTRNDDQLDALQAAGANEVVPESLEGSLMLVSQVLSLTGVPFSRIMRRVQRERKNHYNHLHGFFQGEHTDMSPQAIDRIEFAHAILINDNSFSCGKSIESLNLGKMRVNVVALRRGDIECESPGKDTVLQAQDTLIIRGKPRGVEKADHYVQEGK | failed
4 | MTTMQSRERLVKWLQDAYAMEKEAETMMAAMASRIEHYPELKRRIEQHVEETQQQSAGVQRCLELLNGSIPTAKGMLSSVLASMHAAGNSMMTDEVTKGVGISYAFEHLEIASYRALVVAARSAGEQEVAQICEDILQQEIEMAEWLIEHQEAIVVAFLEREQLEGVTAKR | not failed
5 | MMTLNAFIEKLSTQPELIEFTETMAVIESHYEFTPTEFANGNTVNLADQNNGSCKIFAFALLNQLSVDQTLACFGQYYRQDVLENPQGDDHQNIRNFMVTGWAGVQFKAQALQAK | failed
6 | MRMRYQGRLSDWNDHKGFGFVTPHGGGDRAFVHISAFAQQTRRPRDGEIITYAIERDAHKRLNATQVRWADRTTAARTEQRRSGLPRKTLAAVSMLALAAATLMHVLPVIVPLWYAAASLVTLLIYAMDKSAAQRNQWRTPESSLHLLALIGGWPGALLAQEIHRHKCSKAAFQLTFWLTVALNVSALVLAVTETDLMATLPAVFD | failed
7 | MLKGKVALVTGASRGIGRAIAKRLANDGALVAIHYGNRKEEAEETVYEIQSNGGSAFSIGANLESLHGVEALYSSLDNELQNRTGSTKFDILINNAGIGPGAFIEETTEQFFDRMVSVNAKAPFFIIQQALSRLRDNSRIINISSAATRISLPDFIAYSMTKGAINTMTFTLAKQLGARGITVNAILPGFVKTDMNAELLSDPMMKQYATTISAFNRLGEVEDIADTAAFLASPDSRWVTGQLIDVSGGSCL | not failed
8 | PELKCPVIGCDGQGHISGKYTSHRTASGCPLAAKRQKENPLNGASLSWKLNKQELPHCPLPGCNGLGHVNNVFVTHRSLSGCPLNAQVIKKGKVS | not failed
9 | MRGWICVKLTKLNIKKYRAPIYKYALANVNLRSAKSTNSSIITVIPQGAKMEVLDEEDDWIKVMYNSQEGYVYKDLVSVSEYAWSNLNLREDKSTTSNIITVIPEKSRVEVLQVDGDWSKVVYDDKIGYVFNYFLSIDGNKPNELDYKYFYTDMIKFVNENNIKSTSDYLIVTDLRNKYTYIFKKDNGGWGQLYKWQCTIGKPETPTITGIFYISGRKPSFGTDEYSVKYATRIKGGYYYHSVLYDSTGSYIIDGRLGEALSHGCIRLSTENAKWIYDNIPDTTTVIIH | failed
10 | MRKVLVTVLLVLTVLSLFSAVKIAVILPMTGGISAFGRMVWEGIQIAHEEKPTVLGEEVELVLLDTRSEKTEAANAAARAIDKEKVLAIIGEVASAHSLAIAPIAEENKVPMVTPASTNPLVTQGRKFVSRVCFIDPFQGAAMAVFAYKNLGAKRVVVFTDVEQDYSVGLSNFFINKFTELGGQVKRVFFRSGDQDFSAQLSVAMSFNPDAIYITGYYPEIALISRQARQLGFTGYILAGDGADAPELIEIGGEAVEGLLFTTHYHPKAASNPVAKKFVEVYKEKYGKEPAALNALGYDAYMVLLDAIERAGSFDREKIAEEIRKTRNFNGASGIINIDENGDAIKSVVVNIVKNGSVDFEAVINPDDLK | not failed
11 | METYLEIETLIKRIFNSFRHEVEAVLDKRLSGSEYRVLSLISSGLTKTSDLAKTLDVSASHITAITDTLVEEKLITRHRSEVDRRIIELKLTSNAEEFVKEIDKKKKEMIVKRFAVFSEYEQAEFRKLLKKLADGSQSNK | failed
12 | MLNIGVKDVKTNLLTPVVTLSIFGSTGAVLPALAIPVITPTQQDIQPALPEPSPLPPTSPPVLEPPPSPPSPAPESENVLIPVQKIIVEGSTLFGPAEFDPILKPLEGQQVTLAELQRATDAITKLYLEGGYLTSRAVLNEQVVRDGVIRIQVLEGRLEDIRIEGNKGIIQRYIRSRIALGAGVPLNGNRLEEQLRLLRTDPLFANLSASLRPGTTPQESVLVVRVVPARWLNAAFGLDNHTSPAIAPNRATAFLGYNNLSGRGDSVYGSYAIGNNLGTFDWGASNTVEFGYSLPLNAMNGTLTIRTLQADSEITRPPALAAFNIRSESSIYQASFRQPVIRTIREELAFGIGFLMQSAQTFVLGVPAPISPGANASGYSASRVLEFTQEYTRRDTQGAWVFRSQFNFGLPIFGATENPSPIPDGNFFSWLGQGQRLQLLWADNLLILRTDVQLTPNSLLPFHQFVIGGPLSVRGYSTNALSGDNGLRFSGEARFPVLRTANRRPIISIGPLFDLGVVWNHSRNPAGAVPNNVIAGLGMGLLVQPTPNLDLQLQYAAPLIDLPGQTRSLQSDGIYFSLTVRP | failed
13 | MVIGQKVLLARIPKMGDNYSTYLLDIEGTVCPISFVKETLFPYFTNKVPQLVQQDTRDSPVSNILSQFHIDNKEQLQAHILELVAKDVKDPILKQLQGYVWAHGYESGQIKAPVYADAIDFIKRKKRVFIYSSGSVKAQKLLFGYVQDPNAPAHDSLDLNSYIDGYFDINTSGKKTETQSYANILRDIGAKASEVLFLSDNPLELDAAAGVGIATGLASRPGNAPVPDGQKYQVYKNFETL | not failed
14 | MNQVHHAAQQGFSQAAELYQHARPNYPQAVVEWLKQDLRLNKYSKVVDLGAGTGKFLPYLKQVTTDIVAVEPVHEMLQQLQTAHPDIKVLQAQSTNIPLESESIDAVLCAQSFHWFANIESLNEIYQLLKPSGHLGLIWNQRDENIDWVKQIADMLMTFEGDTPRYHSGEWKKAFEHQHLFKLEHARVFSHVHTGTVEQVVSQRLLSTSFIAAMPEAQQQQLKQQFEHIVFECTGKQPTDQIDFPYITYAYDFKKI | failed
15 | MPFGLKSSQSIDDKFMSITQMKNLIHYVKKNDALSHLCIYILIITGSRFKPVQHLRYEDLNFKKSCIHLNDTKNKYSKRNVKVRIKDLEYIQSVINKHPINQNGYIFHNFINFISYSAINDVLVRFCLKYKYDKYTLKSLRHTHCSYLLAKGISIQYISKRLGHADIHTTLKIYSHLIKEFEDSENSLIEKNLNDLFSDLEHHHHHH | not failed
16 | MWVWNMVEIKIVFGSSENMEEIPDNSVHLVVTSPPYYNAPFDFPGLFSSYEEYLNLLRKVGKELMRVLQPGRYACFVTQDVRIEGKLYPIVSDLIHIMVHELGFEYQDKIIWRKPEGYIRISRRSGVLIQHPYPMYYYPDNIYEEVVIFKKPGKFDRSAVPPEIREKSKISISKFQAEKWYLSVWDIKNVLPHEKWSKYTAPFPEELAERLIRLYSYVGETVLDPFLGSGTTCVVSRKLHRNCIGYEIDLELREIIEERLG | failed
17 | MHAKFLDTLDWGILIAYFLILIAIGIWASSKRKKGSSLFLAEHSLRWHHIGFSMWGTNVGPSMLIASASAGFTTGIVSGNYAWYAFVFICLLAFVFAPRYLGSRVSTLPEFMGKRFGQSTRNILAWYTIVTILISWLALTLFAGGVLIRQVFDIPMWQSALILLIISAFFTMLGGLKAVAYTNVYQMILLILVSAALAIVGIYKVGGISALTDAVPADFWNLFRPNDDTAFPWLPIILGYPVMGVWFWCTDQSMVQPVLAAKSLKEGQLGTNFTGWLKILDVPLYILPGIICLALFPQLENPDEAYMTMVTHLFPVGMVGLVLAVLTAALVSTIGSALNALSTVFTMDIYVKKIRPQAKQKEIIRVGQVVTVAGALISVIITIAIDSIHGLNLFNVFQSVLGFIAPPMAAVFLFGVFWKRTTTLAANAALTVGTVFSIGVGVLYLWVFPADQYSAWPHFMLLSFYLFVIIGIGMVVVGLLDKTPQTAILNMEKIEEKPARIVLILWGLLIVTMIGLYIFFNGH | failed
18 | EKKEGHFSALPSLPVGSHAKVSSPQPRGPRYAEGTFISDYSIAMDKIHQQDFVNWLLAQKGKKNDWKHNITQREARALELASQANRKEEEAVEPQSSPAKNPSDEDLLRDLLIQELLACLLDQTNLCRLRSR | failed
19 | PVVVAVGAHREAAAVVDTAARLARDTASPLEVVHVRRTAVVEEQAADTETDEQAKAAVTAHLDRLGGMGVTATGQILTGVGDHAAAGRALARHAAEVGARTVAVGRSPRGPLAQFADGSFTSALTHAATCTVVLVDPNAEPR | failed
20 | MKNKGLIATLILLTILVVGELFYNKSEKRLNLSEKQVVKIGILQYVTHDALDAIEKGVEDGLAQEGYKGKKVKLTVLNAEADQSKIQAMSKQLVNHHNDILIGIATPSAQGLAASTKDTPIIMGAVSDPLGAKLVTNMKKPTTNVTGLSNVVPTKQTVQLIKDITPNIKRIGILYASSEDNSVSQVTEFTKYAQKAGLEVLKYSVPSTNEIKTSMSVMTKKVDAVFVPQDNTIASAFRTVIVAANQANIPVYSSVDTMVEQGSIASVAQSQYGLGLETAKQAIKVLRGKPVKDVPVKVIDTGKPSLNLKAAKHLGIKIPKKIMKQAEITVKVDD | failed
21 | MAVRFFHTSDWHLGQFFYNHSRHYEHEQFLAWLLKQIKAKQPHALLIAGDIFDVINPSSQAQKQLYQFLADAHALAPHMQTLMIAGNHDSGYRIEQVEPLLEKYNARTVGVIRWNEDKTLNLERLILPVYDENKNVVAWCIALPFLRSAEITGFNEHTNNSQSAIAYLHEQLISEAKRRKTDDQAIILMSHAHMQGGETSDSERPIIIGNEEALSTALFDDAIDYVALGHLHKPQKVQHPHIRYSGSPIPLSFSEINYKHQVVDVNIDPTQSTDKFQFEAIEIPRSIKLHKIRGELNEVIQQLKSLAQGEIESIDLREYIDIEYHTLTPPLPNLRQQFEDALPPKRYRLVRISRQYLSQDNNAAQASKINLEPPTPEKLFEQIWDKKGYHADDDVKKDFMSLVAQAQQQLEDQHKY | failed
